Experimental data from patent US20120058906A1.

Columns and labels:
[1] = target: rHuman EGF R/Fc Chimera, CF (R&D Systems Cat#344-ER) (human) (UniProt P00533); experiment: ECL (MSD multi-spot) screen, antigen spotted on plate, Fab at 0.58 uM; blank spot 403
[2] = target: rHuman IGF-1 sR, CF (R&D Systems Cat#391-GR) (human) (UniProt P08069); experiment: as above
[3] = target: rHuman ErbB2/Fc Chimera, CF (R&D Systems Cat#1129-ER) (human) (UniProt P04626); experiment: as above
[4] = target: rHuman HGF R/c-MET/Fc Chimera, CF (R&D Systems Cat#358-MT/CF) (human) (UniProt P08581); experiment: as above
[5] = target: rHuman Notch-1/Fc Chimera, CF (R&D Systems Cat#3647-TK) (human) (UniProt P46531); experiment: ECL (MSD multi-spot), Fab 9.1 nM; blank 276
[6] = target: rHuman Erythropoietin R/Fc Chimera, CF (R&D Systems Cat#963-ER) (human) (UniProt P19235); experiment: ECL (MSD multi-spot), Fab 9.1 nM; blank 276
Chain of rHuman Erythropoietin R/Fc Chimera, CF (R&D Systems Cat#963-ER) (human) (P19235 25-250, change not shown): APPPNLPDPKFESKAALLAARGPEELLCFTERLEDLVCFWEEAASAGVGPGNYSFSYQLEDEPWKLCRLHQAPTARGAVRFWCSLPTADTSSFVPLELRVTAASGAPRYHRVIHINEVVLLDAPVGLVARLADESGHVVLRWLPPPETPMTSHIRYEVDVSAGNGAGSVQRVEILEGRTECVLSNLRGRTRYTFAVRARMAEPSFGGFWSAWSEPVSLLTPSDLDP

[7] = target: rHuman EGF R/Fc Chimera, CF (R&D Systems Cat#344-ER) (human) (UniProt P00533); experiment: ECL (MSD multi-spot), Fab 9.1 nM; blank 276
[8] = target: rHuman ErbB2/Fc Chimera, CF (R&D Systems Cat#1129-ER) (human) (UniProt P04626); experiment: ECL (MSD multi-spot), Fab 9.1 nM; blank 276
[9] = target: rHuman HGF R/c-MET/Fc Chimera, CF (R&D Systems Cat#358-MT/CF) (human) (UniProt P08581); experiment: ECL (MSD multi-spot), Fab 9.1 nM; blank 276
[10] = target: rHuman IGF-1 sR (IGF-1 sR), CF (R&D Systems Cat#391-GR) (human) (UniProt P08069); experiment: ECL (MSD multi-spot), Fab 9.1 nM; blank 276
[11] = target: rHuman P-Cadherin/Fc Chimera, CF (R&D Systems Cat#861-PC) (human) (UniProt P22223); experiment: ECL (MSD multi-spot), Fab 9.1 nM; blank 276
[12] = target: rHuman Notch-1/Fc Chimera, CF (R&D Systems Cat#3647-TK) (human) (UniProt P46531); experiment: ECL (MSD multi-spot), Fab 36.3 nM; blank 314
[13] = target: rHuman Erythropoietin R/Fc Chimera, CF (R&D Systems Cat#963-ER) (human) (UniProt P19235); experiment: ECL (MSD multi-spot), Fab 36.3 nM; blank 314
[14] = target: rHuman EGF R/Fc Chimera, CF (R&D Systems Cat#344-ER) (human) (UniProt P00533); experiment: ECL (MSD multi-spot), Fab 36.3 nM; blank 314
[15] = target: rHuman ErbB2/Fc Chimera, CF (R&D Systems Cat#1129-ER) (human) (UniProt P04626); experiment: ECL (MSD multi-spot), Fab 36.3 nM; blank 314
[16] = target: rHuman HGF R/c-MET/Fc Chimera, CF (R&D Systems Cat#358-MT/CF) (human) (UniProt P08581); experiment: ECL (MSD multi-spot), Fab 36.3 nM; blank 314
[17] = target: rHuman IGF-1 sR (IGF-1 sR), CF (R&D Systems Cat#391-GR) (human) (UniProt P08069); experiment: ECL (MSD multi-spot), Fab 36.3 nM; blank 314
[18] = target: rHuman P-Cadherin/Fc Chimera, CF (R&D Systems Cat#861-PC) (human) (UniProt P22223); experiment: ECL (MSD multi-spot), Fab 36.3 nM; blank 314
[19] = target: rHuman Notch-1/Fc Chimera, CF (R&D Systems Cat#3647-TK) (human) (UniProt P46531); experiment: ECL (MSD multi-spot), Fab 580 nM; blank 679
[20] = target: rHuman Erythropoietin R/Fc Chimera, CF (R&D Systems Cat#963-ER) (human) (UniProt P19235); experiment: ECL (MSD multi-spot), Fab 580 nM; blank 679
[21] = target: rHuman EGF R/Fc Chimera, CF (R&D Systems Cat#344-ER) (human) (UniProt P00533); experiment: ECL (MSD multi-spot), Fab 580 nM; blank 679
[22] = target: rHuman ErbB2/Fc Chimera, CF (R&D Systems Cat#1129-ER) (human) (UniProt P04626); experiment: ECL (MSD multi-spot), Fab 580 nM; blank 679
[23] = target: rHuman HGF R/c-MET/Fc Chimera, CF (R&D Systems Cat#358-MT/CF) (human) (UniProt P08581); experiment: ECL (MSD multi-spot), Fab 580 nM; blank 679
[24] = target: rHuman IGF-1 sR (IGF-1 sR), CF (R&D Systems Cat#391-GR) (human) (UniProt P08069); experiment: ECL (MSD multi-spot), Fab 580 nM; blank 679
[25] = target: rHuman P-Cadherin/Fc Chimera, CF (R&D Systems Cat#861-PC) (human) (UniProt P22223); experiment: ECL (MSD multi-spot), Fab 580 nM; blank 679
[26] = target: rHuman Notch-1/Fc Chimera, CF (R&D Systems Cat#3647-TK) (human) (UniProt P46531); experiment: ECL (MSD multi-spot), Fab 145 nM; blank 357
[27] = target: rHuman Erythropoietin R/Fc Chimera, CF (R&D Systems Cat#963-ER) (human) (UniProt P19235); experiment: ECL (MSD multi-spot), Fab 145 nM; blank 357
[28] = target: rHuman EGF R/Fc Chimera, CF (R&D Systems Cat#344-ER) (human) (UniProt P00533); experiment: ECL (MSD multi-spot), Fab 145 nM; blank 357
[29] = target: rHuman HGF R/c-MET/Fc Chimera, CF (R&D Systems Cat#358-MT/CF) (human) (UniProt P08581); experiment: ECL (MSD multi-spot), Fab 145 nM; blank 357
[30] = target: rHuman IGF-1 sR (IGF-1 sR), CF (R&D Systems Cat#391-GR) (human) (UniProt P08069); experiment: ECL (MSD multi-spot), Fab 145 nM; blank 357
[31] = target: rHuman P-Cadherin/Fc Chimera, CF (R&D Systems Cat#861-PC) (human) (UniProt P22223); experiment: ECL (MSD multi-spot), Fab 145 nM; blank 357

## Fab VH4-34_IGHD7-27*01_IGHJ4*01 & V1-4_IGLJ4*01
[1]
  ECL signal: 1020
[2]
  ECL signal: 1200
[3]
  ECL signal: 1260
[4]
  ECL signal: 1710
[5]
  ECL signal: 754 ECL signal
[6]
  ECL signal: 697 ECL signal
[7]
  ECL signal: 800 ECL signal
[8]
  ECL signal: 987 ECL signal
[9]
  ECL signal: 894 ECL signal
[10]
  ECL signal: 788 ECL signal
[11]
  ECL signal: 589 ECL signal
[12]
  ECL signal: 633 ECL signal
[13]
  ECL signal: 722 ECL signal
[14]
  ECL signal: 831 ECL signal
[15]
  ECL signal: 1030 ECL signal
[16]
  ECL signal: 1060 ECL signal
[17]
  ECL signal: 799 ECL signal
[18]
  ECL signal: 684 ECL signal
[19]
  ECL signal: 1580 ECL signal
[20]
  ECL signal: 1580 ECL signal
[21]
  ECL signal: 1630 ECL signal
[22]
  ECL signal: 1710 ECL signal
[23]
  ECL signal: 2340 ECL signal
[24]
  ECL signal: 1360 ECL signal
[25]
  ECL signal: 2240 ECL signal
[26]
  ECL signal: 860 ECL signal
[27]
  ECL signal: 845 ECL signal
[28]
  ECL signal: 856 ECL signal
[29]
  ECL signal: 1170 ECL signal
[30]
  ECL signal: 794 ECL signal
[31]
  ECL signal: 850 ECL signal
